Experiments:
Test in all cases: IEDB peptide-MHC binding, purified MHC/direct/fluorescence; filed as Kd, often an IC50 or EC50 that approximates it; ≥ and ≤ were set here for values at or beyond the usual limits of such assays
Details in all cases: source organism: Rickettsia bellii OSU 85-389
[1] = target: HLA-B*15:01
[2] = target: HLA-A*02:11
[3] = target: HLA-A*02:16
[4] = target: HLA-B*39:01
[5] = target: HLA-B*18:01
[6] = target: HLA-A*29:02
[7] = target: HLA-B*51:01
[8] = target: HLA-A*02:01
[9] = target: HLA-B*15:17

Measured: Kd

EDFEIFYNL
≥ 20 µM: all assays above

— the Immune Epitope Database (IEDB)
